B1: Homer protein homolog 1 (Rattus norvegicus (Rat)), Q9Z214-2 (parent)
chain: MGEQPIFSTRAHVFQIDPNTKKNWVPTSKHAVTVSYFYDSTRNVYRIISLDGSKAIINSTITPNMTFTKTSQKFGQWADSRANTVYGLGFSSEHHLSKFAEKFQEFKEAARLAKEKSQEKMELTSTPSQESAGGDLQSPLTPESINGTDDERTPDVTQNSEPRAEPAQNALPFSHSSAISKHWEAELATLKGNNAKLTAALLESTANVKQWKQQLAAYQEEAERLHKRVTELECVSSQANAVHSHKTELSQTVQELEETLKVKEEEIERLKQEIDNARELQEQRDSLTQKLQEVEIRNKDLEGQLSELEQRLEKSQSEQDAFRSNLKTLLEILDGKIFELTELRDNLAKLLECS

1 variant from IntAct's records for PubMed 19345194 can be followed below.

In the assay the parent is B1. The settings on record: with shan1_rat Shank1, Q9WV48.
shan1_rat Shank1, Q9WV48, sequence (Q9WV48 whole entry): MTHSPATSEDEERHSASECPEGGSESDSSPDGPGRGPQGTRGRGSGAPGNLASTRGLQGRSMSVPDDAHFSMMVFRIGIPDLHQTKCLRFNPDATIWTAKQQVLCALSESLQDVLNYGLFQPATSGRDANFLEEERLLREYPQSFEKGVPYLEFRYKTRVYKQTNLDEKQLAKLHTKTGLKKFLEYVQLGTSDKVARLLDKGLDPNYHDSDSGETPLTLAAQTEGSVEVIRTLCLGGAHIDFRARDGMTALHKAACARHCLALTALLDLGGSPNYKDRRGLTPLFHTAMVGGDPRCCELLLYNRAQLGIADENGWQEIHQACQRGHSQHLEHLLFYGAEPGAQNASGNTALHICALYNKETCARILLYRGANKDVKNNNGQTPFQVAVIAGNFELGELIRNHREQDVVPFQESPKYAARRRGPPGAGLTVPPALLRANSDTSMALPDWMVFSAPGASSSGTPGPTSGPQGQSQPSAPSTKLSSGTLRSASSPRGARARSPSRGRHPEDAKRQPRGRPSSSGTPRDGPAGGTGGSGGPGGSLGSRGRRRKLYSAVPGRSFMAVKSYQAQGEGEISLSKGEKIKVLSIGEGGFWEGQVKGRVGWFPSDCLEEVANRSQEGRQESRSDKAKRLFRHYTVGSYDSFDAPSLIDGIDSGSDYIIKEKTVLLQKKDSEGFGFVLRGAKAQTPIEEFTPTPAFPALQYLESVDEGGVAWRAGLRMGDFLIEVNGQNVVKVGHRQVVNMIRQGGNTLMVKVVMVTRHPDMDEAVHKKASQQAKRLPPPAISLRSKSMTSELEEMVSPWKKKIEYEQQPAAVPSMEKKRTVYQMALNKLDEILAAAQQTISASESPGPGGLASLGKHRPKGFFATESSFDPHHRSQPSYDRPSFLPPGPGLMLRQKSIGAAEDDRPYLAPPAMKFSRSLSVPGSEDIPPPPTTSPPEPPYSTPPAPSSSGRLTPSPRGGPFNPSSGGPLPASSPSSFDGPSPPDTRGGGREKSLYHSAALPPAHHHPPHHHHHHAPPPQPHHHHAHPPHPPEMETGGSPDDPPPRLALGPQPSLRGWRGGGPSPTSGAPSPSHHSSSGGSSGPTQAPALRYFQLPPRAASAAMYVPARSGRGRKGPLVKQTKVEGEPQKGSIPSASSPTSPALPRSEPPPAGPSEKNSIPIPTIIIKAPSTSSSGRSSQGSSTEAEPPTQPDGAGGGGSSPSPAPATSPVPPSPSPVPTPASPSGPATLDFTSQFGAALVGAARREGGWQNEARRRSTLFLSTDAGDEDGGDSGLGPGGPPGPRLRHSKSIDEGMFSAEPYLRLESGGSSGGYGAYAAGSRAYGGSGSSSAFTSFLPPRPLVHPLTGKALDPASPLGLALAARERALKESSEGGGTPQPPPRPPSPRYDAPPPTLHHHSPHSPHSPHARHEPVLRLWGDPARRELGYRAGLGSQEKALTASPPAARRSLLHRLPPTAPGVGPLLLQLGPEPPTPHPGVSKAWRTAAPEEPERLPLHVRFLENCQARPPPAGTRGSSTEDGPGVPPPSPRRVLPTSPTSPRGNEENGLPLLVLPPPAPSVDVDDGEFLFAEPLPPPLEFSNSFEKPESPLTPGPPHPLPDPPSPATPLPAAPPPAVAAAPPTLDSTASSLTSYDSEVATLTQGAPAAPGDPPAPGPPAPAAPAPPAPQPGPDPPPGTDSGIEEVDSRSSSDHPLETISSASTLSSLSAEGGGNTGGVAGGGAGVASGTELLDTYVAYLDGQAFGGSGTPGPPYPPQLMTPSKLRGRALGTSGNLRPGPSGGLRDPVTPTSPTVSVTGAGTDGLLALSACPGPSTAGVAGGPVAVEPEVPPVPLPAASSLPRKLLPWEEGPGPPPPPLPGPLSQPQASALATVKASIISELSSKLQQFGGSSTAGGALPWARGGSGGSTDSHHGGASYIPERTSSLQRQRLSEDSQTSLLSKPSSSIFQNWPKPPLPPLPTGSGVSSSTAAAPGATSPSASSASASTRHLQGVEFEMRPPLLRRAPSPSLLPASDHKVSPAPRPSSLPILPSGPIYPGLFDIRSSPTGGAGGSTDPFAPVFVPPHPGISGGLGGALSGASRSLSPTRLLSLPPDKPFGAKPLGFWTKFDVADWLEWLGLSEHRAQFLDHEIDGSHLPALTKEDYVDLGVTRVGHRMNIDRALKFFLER
For the variant MGEQPIFSTRAHVFQIDPNTKKNAVPTSKHAVTVSYFYDSTRNVYRIISLDGSKAIINSTITPNMTFTKTSQKFGQWADSRANTVYGLGFSSEHHLSKFAEKFQEFKEAARLAKEKSQEKMELTSTPSQESAGGDLQSPLTPESINGTDDERTPDVTQNSEPRAEPAQNALPFSHSSAISKHWEAELATLKGNNAKLTAALLESTANVKQWKQQLAAYQEEAERLHKRVTELECVSSQANAVHSHKTELSQTVQELEETLKVKEEEIERLKQEIDNARELQEQRDSLTQKLQEVEIRNKDLEGQLSELEQRLEKSQSEQDAFRSNLKTLLEILDGKIFELTELRDNLAKLLECS [W24A], the “effect of a mutation on the interaction” value is “decreasing interaction”.
